Non-standard residues stand in square brackets, D forms with d. No end group written: not given here. *: point of attachment. Biotin = O=C1N[C@H]2[C@H](CS[C@H]2CCCCC(=O)*)N1; pY = N[C@@H](Cc1ccc(OP(=O)(O)O)cc1)C(=O)O
T1: SAP (recombinant full-length human SAP) (human, UniProt O60880 1-128)
T1 construct: SAP, human, full length; also called SH2D1A; source: E. coli BL21(DE3)pLysS, purified (Co2+ or Ni2+ column, size exclusion chromatography)
T1 sequence (looked up): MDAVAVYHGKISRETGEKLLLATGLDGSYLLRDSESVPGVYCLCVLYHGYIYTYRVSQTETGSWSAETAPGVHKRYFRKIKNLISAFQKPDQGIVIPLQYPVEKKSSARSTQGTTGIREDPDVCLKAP

T2: EAT-2 (recombinant full-length human EAT-2) (human, UniProt O14796 1-132)
T2 construct: EAT-2, human, full length; source: E. coli BL21(DE3)pLysS, purified (Co2+ or Ni2+ column, size exclusion chromatography)
T2 sequence (looked up): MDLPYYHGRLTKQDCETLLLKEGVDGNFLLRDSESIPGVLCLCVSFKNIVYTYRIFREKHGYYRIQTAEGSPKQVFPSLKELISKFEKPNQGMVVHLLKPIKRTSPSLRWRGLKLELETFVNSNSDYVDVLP

T3: PLCγ2 SH2-SH2-SH3 (tandem SH2 domains plus the SH3 domain of PLCγ2) (human, UniProt P16885 519-838)
T3 construct: PLCγ2, human, tandem SH2 domains plus SH3 domain, aa 519–838; Printed MW = 42415 of the recombinant protein; also called recombinant PLCγ2 SH2 domains; source: E. coli BL21(DE3)pLysS, purified (Co2+ or Ni2+ column, size exclusion chromatography, same day as SPR)
T3 sequence: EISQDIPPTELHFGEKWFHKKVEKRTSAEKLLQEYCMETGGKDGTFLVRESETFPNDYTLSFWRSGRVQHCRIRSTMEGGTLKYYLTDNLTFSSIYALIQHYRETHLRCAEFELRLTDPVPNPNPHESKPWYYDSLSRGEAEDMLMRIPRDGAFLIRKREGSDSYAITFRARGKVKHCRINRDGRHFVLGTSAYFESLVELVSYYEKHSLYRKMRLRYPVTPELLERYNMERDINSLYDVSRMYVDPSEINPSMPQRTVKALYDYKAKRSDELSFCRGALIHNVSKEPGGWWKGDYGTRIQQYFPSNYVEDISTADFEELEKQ

T4: PLCγ1 SH2-SH2-SH3 (tandem SH2 domains plus the SH3 domain of PLCγ1) (human, UniProt P19174 536-863)
T4 construct: PLCγ1, human, tandem SH2 domains plus SH3 domain, aa 536–863; Printed MW = 42531 of the recombinant protein; also called recombinant PLCγ1; source: E. coli BL21(DE3)pLysS, purified (Co2+ or Ni2+ column, size exclusion chromatography, same day as SPR)
T4 sequence: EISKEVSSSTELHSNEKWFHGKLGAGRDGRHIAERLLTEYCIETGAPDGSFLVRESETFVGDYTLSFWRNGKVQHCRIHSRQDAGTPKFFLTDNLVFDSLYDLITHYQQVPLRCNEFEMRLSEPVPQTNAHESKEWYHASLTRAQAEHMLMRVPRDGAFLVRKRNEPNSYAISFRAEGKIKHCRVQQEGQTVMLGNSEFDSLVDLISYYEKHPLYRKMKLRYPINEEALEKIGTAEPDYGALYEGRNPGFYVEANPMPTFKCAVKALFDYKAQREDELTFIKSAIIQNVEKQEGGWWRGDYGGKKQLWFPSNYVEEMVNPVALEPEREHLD

T5: SHIP SH2 (SH2 domain from human SHIP-1) (human, UniProt Q92835 5-101)
T5 construct: SHIP-1, human, single SH2 domain; also called hSHIP SH2; SHIP-1 SH2 domain; source: E. coli BL21(DE3)pLysS, purified (Co2+ or Ni2+ column, size exclusion chromatography)
T5 sequence (looked up): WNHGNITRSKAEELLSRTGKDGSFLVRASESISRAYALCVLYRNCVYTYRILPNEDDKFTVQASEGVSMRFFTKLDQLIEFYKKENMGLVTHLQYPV

T6: SHP-2 N-terminal + C-terminal (N+C) SH2 domains (human, UniProt Q06124 2-219)
T6 construct: SHP-2, human, N-terminal + C-terminal SH2 domains, aa 2–219; also called SHP-2 (SH2-SH2); SHP2 N+C SH2; source: E. coli BL21(DE3)pLysS, purified (Oxford Protein Production Facility / in house; size exclusion chromatography)
T6 sequence (looked up): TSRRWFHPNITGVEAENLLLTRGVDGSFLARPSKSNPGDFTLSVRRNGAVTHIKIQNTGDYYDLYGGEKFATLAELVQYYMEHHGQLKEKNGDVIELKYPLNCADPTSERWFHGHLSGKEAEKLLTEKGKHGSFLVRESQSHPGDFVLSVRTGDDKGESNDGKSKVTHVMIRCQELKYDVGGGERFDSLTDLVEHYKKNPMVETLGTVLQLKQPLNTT

B1: CRACC ITSM2 phosphopeptide (Biotin-PANTVpYSTVEI) (peptide)
peptide: Biotin-PANTV[pY]STVEI
notes: CRACC (SLAMF7), human, cytoplasmic ITSM2; also called SLAMF7 ITSM2; source: synthetic peptide (Peptide Protein Research Ltd)
B2: CD244 ITSM1 phosphopeptide (Biotin-EFLTIpYEDVKD) (peptide)
peptide: Biotin-EFLTI[pY]EDVKD
notes: CD244 (SLAMF4), human, cytoplasmic ITSM1; also called SLAMF4 ITSM1; source: synthetic peptide (Peptide Protein Research Ltd)
B3: CD244 ITSM1,ITSM2 (equimolar mixture of single ITSM on chip) (other)
chain 1: Biotin-EFLTI[pY]EDVKD
chain 2: Biotin-GGSTI[pY]SMIQS
modifications: also: equimolar mixture of two separate peptides
B4: CD244 ITSM1+ITSM2 tandem phosphopeptide (peptide)
peptide: Biotin-EFLTI[pY]EDVKDLKTRRNHEQEQTFPGGGSTI[pY]SMIQS
notes: CD244 (SLAMF4), human, cytoplasmic stretch with ITSM1 and ITSM2; also called tandem ITSM peptide; source: synthetic peptide (Peptide Protein Research Ltd)
B5: CD244 ITSM3+ITSM4 tandem phosphopeptide (peptide)
peptide: Biotin-PAYTL[pY]SLIQPSRKSGSRKRNHSPSFNSTI[pY]EVIGK
notes: CD244 (SLAMF4), human, cytoplasmic stretch with ITSM3 and ITSM4; source: synthetic peptide (Peptide Protein Research Ltd)
B6: SIRPα ITIM1+ITIM2 tandem phosphopeptide (peptide)
peptide: Biotin-TNDIT[pY]ADLNLPKGKKPAPQAAEPNNHTE[pY]ASIQT
notes: SIRPα, human, cytoplasmic stretch with ITIM1 and ITIM2; source: synthetic peptide (Peptide Protein Research Ltd)
B7: EAT-2 Y127 phosphopeptide (Biotin-NSNSDpYVDVLP) (peptide)
peptide: Biotin-NSNSD[pY]VDVLP
notes: EAT-2, human, tail with the conserved tyrosine motif Y127; also called EAT-2 pY127; EAT-2 tail phosphopeptide; source: synthetic peptide (Peptide Protein Research Ltd)
B8: LAT Y132 phosphopeptide (Biotin-HNPGpYLVVLPD) (peptide)
peptide: Biotin-HNPG[pY]LVVLPD
notes: LAT, human, stretch around Y132; also called LAT pY132; source: synthetic peptide (Peptide Protein Research Ltd)

Columns and labels:
Settings in all cases: both partners purified
[1] = biological target: T1, SAP (recombinant full-length human SAP); assay: SPR; biotinylated phosphopeptides immobilised on streptavidin chip (about 25 RU single motifs); soluble recombinant protein injected in two-fold dilutions; 37°C; HBS-EP (10 mM HEPES pH 7.4, 150 mM NaCl, 3.4 mM EDTA, 0.005% P20); equilibrium binding, one-site model; proteins purified on the same day as SPR (Tables 1 and 6)
[2] = biological target: T2, EAT-2 (recombinant full-length human …); assay: as above
[3] = biological target: T3, PLCγ2 SH2-SH2-SH3 (tandem SH2 domains …); assay: as above
[4] = biological target: T4, PLCγ1 SH2-SH2-SH3 (tandem SH2 domains …); assay: as above
[5] = biological target: T2, EAT-2 (recombinant full-length human …); assay: SPR; biotinylated phosphopeptides immobilised on streptavidin chip (about 25 RU single, 50 RU tandem motifs); soluble recombinant protein injected; 37°C; HBS-EP; equilibrium binding (Table 4; same-day purification not given)
[6] = biological target: T5, SHIP SH2 (SH2 domain from human SHIP-1); assay: as above
[7] = biological target: T6, SHP-2 N-terminal + C-terminal (N+C) SH2 …; assay: as above
[8] = biological target: T6, SHP-2 N-terminal + C-terminal (N+C) SH2 …; assay: SPR; biotinylated tandem phosphopeptides immobilised on streptavidin chip; SHP-2 N+C SH2 injected; 25°C; HBS-EP; equilibrium binding (Table 4)

Row | Binder | Kd [3] | Kd [4] | Kd [7] | Kd [8] | other results
1 | B1 |  |  |  |  | Kd [1]: 440 nM; Kd [2]: 3 nM
2 | B2 | 210 nM | 800 nM | 29000 nM |  | Kd [5]: 60 nM; Kd [6]: 11000 nM; Kd [2]: 20 nM
3 | B3 |  |  | 22000 nM |  | 
4 | B4 |  |  | 2200 nM | 1400 nM | 
5 | B5 |  |  | 10000 nM | 7400 nM | 
6 | B6 |  |  | 1000 nM | 500 nM | 
7 | EDTLTYADLDMVHLNRTPKQPAPKPEPSFSEYASVQV (also: phosphorylated, sites not given here, biotinylated, site not given here) [SIRPα ITIM3+ITIM4 tandem phosphopeptide] |  |  |  | 6400 nM | 
8 | B7 | 30 nM | 10 nM |  |  | 
9 | B8 | 20 nM | 20 nM |  |  | 
10 | ENTITYSLLMH (also: phosphorylated, site not given here, biotinylated, site not given here) [FCRγIIb (CD32) phosphopeptide] |  |  |  |  | Kd [6]: 470 nM
